From the supplement of paper PMC9112550, “Optimization of the antimicrobial peptide Bac7 by deep mutational scanning” (BMC Biology, 2022) come the findings set out here.

For this series, the system named is Escherichia coli TOP10. The experiment in a line: shrunken log2 fold change of peptide-encoding DNA abundance (4.5 h post-induction vs induction); higher = less antimicrobial activity (less host growth inhibition). As to conditions: time post-induction: 4.5 h; library: site-saturation at positions 5, 18, 19, 20.
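Also: peptides expressed intracellularly from a pBAD plasmid library in pooled LB shake-flask culture, induced with 0.3% L-arabinose, DNA abundance read by NGS, three biological replicates, DESeq2 with apeglm shrinkage.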

Take RRIRLRPPRLPRPRPRPHMSPRP: the “shrunken log2 fold change” value is -0.325.
As to RRIRPRPPRLPRPRPRPEHAPRP, the “shrunken log2 fold change” value worked out at 0.197.
As to RRIRTRPPRLPRPRPRPNSQPRP, the “shrunken log2 fold change” value was -0.00223.
On to RRIRMRPPRLPRPRPRPDPIPRP, for which the “shrunken log2 fold change” value is -0.249.
Take RRIRVRPPRLPRPRPRPAPMPRP: the “shrunken log2 fold change” value was 0.324.
In the case of RRIRLRPPRLPRPRPRPEKYPRP, the “shrunken log2 fold change” value was -0.397.
Turning to RRIRERPPRLPRPRPRPSLMPRP, the “shrunken log2 fold change” value was -0.459.
With RRIRFRPPRLPRPRPRPEAIPRP the figure was 0.104; with RRIRARPPRLPRPRPRPNYYPRP, -0.414; with RRIRARPPRLPRPRPRPSQKPRP, 0.106.
For the sequence RRIRVRPPRLPRPRPRPSDDPRP, the “shrunken log2 fold change” value is -0.417.
RRIRLRPPRLPRPRPRPCGNPRP: the “shrunken log2 fold change” value turned out to be 0.0862.
With RRIRIRPPRLPRPRPRPCWTPRP, the “shrunken log2 fold change” value is -0.281.
With RRIRPRPPRLPRPRPRPHLAPRP, the “shrunken log2 fold change” value was determined as 0.0568.
As to RRIRMRPPRLPRPRPRPWDEPRP, the “shrunken log2 fold change” value is 0.391.
Then RRIRCRPPRLPRPRPRPFACPRP, with -0.22.
With RRIRGRPPRLPRPRPRPGDMPRP the figure was 0.511; with RRIRLRPPRLPRPRPRPRECPRP, -0.104; with RRIRHRPPRLPRPRPRPEPFPRP, 0.0638.
As for RRIRVRPPRLPRPRPRPIVIPRP, the “shrunken log2 fold change” value came out at 0.0265.
Then RRIRPRPPRLPRPRPRPSNFPRP, with -0.168; and RRIRFRPPRLPRPRPRPLDAPRP, with 0.0999.
For RRIRYRPPRLPRPRPRPIIEPRP, the “shrunken log2 fold change” value was -0.643.
For RRIRQRPPRLPRPRPRPSRGPRP, the “shrunken log2 fold change” value is 0.269.
Turning to RRIRTRPPRLPRPRPRPRLDPRP, the “shrunken log2 fold change” value was -0.0828.
Then RRIRGRPPRLPRPRPRPCVYPRP, with 0.486.
Then RRIRPRPPRLPRPRPRPMVFPRP, with -0.166; and RRIRERPPRLPRPRPRPIVQPRP, with -0.311.
As for RRIRQRPPRLPRPRPRPDALPRP, the “shrunken log2 fold change” value is -0.0392.
On to RRIRPRPPRLPRPRPRPFIKPRP, for which the “shrunken log2 fold change” value is -0.926.
With RRIRSRPPRLPRPRPRPAPFPRP the figure was 0.201.
For the sequence RRIRMRPPRLPRPRPRPHDFPRP, the “shrunken log2 fold change” value is 0.143.
With RRIRYRPPRLPRPRPRPSYFPRP the figure was -0.684.
On to RRIRSRPPRLPRPRPRPYQWPRP, for which the “shrunken log2 fold change” value came out at 0.0794.
With RRIRIRPPRLPRPRPRPYMQPRP, the “shrunken log2 fold change” value is -0.695.
In the case of RRIRCRPPRLPRPRPRPKFWPRP, the “shrunken log2 fold change” value came to 0.449.
For RRIRYRPPRLPRPRPRPVFNPRP, the “shrunken log2 fold change” value is -1.32.
Take RRIRIRPPRLPRPRPRPHMQPRP: the “shrunken log2 fold change” value was -0.169.
As for RRIRTRPPRLPRPRPRPMFFPRP, the “shrunken log2 fold change” value is -0.204.
With RRIRQRPPRLPRPRPRPIRMPRP the figure was -0.291; with RRIRTRPPRLPRPRPRPQFLPRP, -0.352; with RRIRDRPPRLPRPRPRPTPLPRP, 0.484.
As for RRIRWRPPRLPRPRPRPQSKPRP, the “shrunken log2 fold change” value is -0.0549.
Take RRIRYRPPRLPRPRPRPCPWPRP: the “shrunken log2 fold change” value was -0.227.
Then RRIRARPPRLPRPRPRPLEIPRP, with 0.0728; and RRIRRRPPRLPRPRPRPINIPRP, with -0.256; and RRIRHRPPRLPRPRPRPYYHPRP, with -0.339.
With RRIRARPPRLPRPRPRPVHHPRP the figure was -0.0524; with RRIRARPPRLPRPRPRPGSNPRP, 0.127.
As for RRIRFRPPRLPRPRPRPGNEPRP, the “shrunken log2 fold change” value is -0.00911.
With RRIRSRPPRLPRPRPRPITLPRP, the “shrunken log2 fold change” value is -0.333.
On to RRIRYRPPRLPRPRPRPDNMPRP, for which the “shrunken log2 fold change” value was -0.0223.
With RRIRERPPRLPRPRPRPYEFPRP the figure was 0.00902; with RRIRGRPPRLPRPRPRPGGPPRP, 0.968; with RRIRDRPPRLPRPRPRPCNQPRP, -0.285.
Then RRIRERPPRLPRPRPRPVLHPRP, with -0.0594; and RRIRRRPPRLPRPRPRPRGQPRP, with 1.11.
On to RRIRLRPPRLPRPRPRPITEPRP, for which the “shrunken log2 fold change” value stood at 0.0241.
Regarding RRIRGRPPRLPRPRPRPHVEPRP, the “shrunken log2 fold change” value was determined as 0.36.
Then RRIRIRPPRLPRPRPRPIIWPRP, with -0.167; and RRIRNRPPRLPRPRPRPYCHPRP, with -0.72; and RRIRIRPPRLPRPRPRPISFPRP, with 0.00109.
Regarding RRIRMRPPRLPRPRPRPVQEPRP, the “shrunken log2 fold change” value came out at 0.051.
Take RRIRTRPPRLPRPRPRPSKNPRP: the “shrunken log2 fold change” value is -0.325.
With RRIRWRPPRLPRPRPRPTEDPRP, the “shrunken log2 fold change” value amounted to 0.0661.
On to RRIRLRPPRLPRPRPRPSWNPRP, for which the “shrunken log2 fold change” value is -0.342.
For RRIRQRPPRLPRPRPRPRCQPRP, the “shrunken log2 fold change” value was -0.0547.
For the sequence RRIRPRPPRLPRPRPRPSYCPRP, the “shrunken log2 fold change” value was -0.387.
RRIRMRPPRLPRPRPRPHNSPRP: the “shrunken log2 fold change” value was -0.171.
In the case of RRIRCRPPRLPRPRPRPATNPRP, the “shrunken log2 fold change” value came out at 0.213.
Take RRIRGRPPRLPRPRPRPWFCPRP: the “shrunken log2 fold change” value is -0.444.
With RRIRDRPPRLPRPRPRPDRFPRP, the “shrunken log2 fold change” value was 0.0112.
In the case of RRIRNRPPRLPRPRPRPQCVPRP, the “shrunken log2 fold change” value was -0.0063.
As to RRIRTRPPRLPRPRPRPAQMPRP, the “shrunken log2 fold change” value amounted to 0.0652.
Consider RRIRWRPPRLPRPRPRPDKGPRP, for which the “shrunken log2 fold change” value came to 0.0389.
Then RRIRRRPPRLPRPRPRPYWLPRP, with -0.578; and RRIRYRPPRLPRPRPRPPKAPRP, with -0.0334; and RRIRERPPRLPRPRPRPDINPRP, with -0.239.
With RRIRPRPPRLPRPRPRPPPSPRP the figure was 1.12.
On to RRIRFRPPRLPRPRPRPRQMPRP, for which the “shrunken log2 fold change” value is -0.0877.
Regarding RRIRQRPPRLPRPRPRPVDKPRP, the “shrunken log2 fold change” value is -0.0881.
In the case of RRIRWRPPRLPRPRPRPNNCPRP, the “shrunken log2 fold change” value was 0.00476.
As to RRIRVRPPRLPRPRPRPRVFPRP, the “shrunken log2 fold change” value is 0.218.
For RRIRKRPPRLPRPRPRPNCFPRP, the “shrunken log2 fold change” value was found to be 0.274.
Then RRIRQRPPRLPRPRPRPMWAPRP, with -0.127; and RRIRPRPPRLPRPRPRPVMAPRP, with -0.128.
As to RRIRRRPPRLPRPRPRPGDPPRP, the “shrunken log2 fold change” value amounted to 0.593.
As to RRIRLRPPRLPRPRPRPLQPPRP, the “shrunken log2 fold change” value is 0.206.
As to RRIRNRPPRLPRPRPRPKEFPRP, the “shrunken log2 fold change” value was -0.012.
Then RRIRERPPRLPRPRPRPFRWPRP, with 0.0329.
As for RRIRERPPRLPRPRPRPASVPRP, the “shrunken log2 fold change” value is -0.0789.
With RRIRSRPPRLPRPRPRPIATPRP the figure was 0.344.
Turning to RRIRARPPRLPRPRPRPIECPRP, the “shrunken log2 fold change” value came out at 0.157.
As for RRIRCRPPRLPRPRPRPELDPRP, the “shrunken log2 fold change” value amounted to 0.00162.
On to RRIRNRPPRLPRPRPRPEYCPRP, for which the “shrunken log2 fold change” value worked out at 0.00705.
As to RRIRNRPPRLPRPRPRPFWPPRP, the “shrunken log2 fold change” value was 0.226.
As for RRIRQRPPRLPRPRPRPCNMPRP, the “shrunken log2 fold change” value was found to be 0.00148.
With RRIRGRPPRLPRPRPRPACLPRP, the “shrunken log2 fold change” value was 0.792.
With RRIRFRPPRLPRPRPRPYQEPRP the figure was -0.0819; with RRIRHRPPRLPRPRPRPGYKPRP, -0.00663; with RRIRIRPPRLPRPRPRPEQCPRP, -0.122.
RRIRHRPPRLPRPRPRPVTRPRP: the “shrunken log2 fold change” value was -0.00217.
As for RRIRTRPPRLPRPRPRPHYCPRP, the “shrunken log2 fold change” value is -0.418.
As to RRIRPRPPRLPRPRPRPHNQPRP, the “shrunken log2 fold change” value was -0.378.
As to RRIRCRPPRLPRPRPRPQICPRP, the “shrunken log2 fold change” value came out at 0.0827.
In the case of RRIRVRPPRLPRPRPRPLRCPRP, the “shrunken log2 fold change” value amounted to 0.0372.
In the case of RRIRGRPPRLPRPRPRPRHHPRP, the “shrunken log2 fold change” value was 2.5.
Then RRIRVRPPRLPRPRPRPYHGPRP, with -0.237; and RRIRLRPPRLPRPRPRPMHSPRP, with -0.13.
With RRIRCRPPRLPRPRPRPSICPRP the figure was -0.194; with RRIRGRPPRLPRPRPRPPTMPRP, 0.429.
Turning to RRIRHRPPRLPRPRPRPPPSPRP, the “shrunken log2 fold change” value was found to be 0.87.
With RRIRGRPPRLPRPRPRPSVKPRP the figure was 0.293; with RRIRIRPPRLPRPRPRPMYIPRP, -0.0364.
Then RRIRNRPPRLPRPRPRPEHPPRP, with 0.115; and RRIRMRPPRLPRPRPRPSYVPRP, with -0.331; and RRIRCRPPRLPRPRPRPDYFPRP, with -0.248.
RRIRCRPPRLPRPRPRPFLKPRP: the “shrunken log2 fold change” value was -0.639.
RRIRRRPPRLPRPRPRPEYGPRP: the “shrunken log2 fold change” value is -0.0277.
For RRIRNRPPRLPRPRPRPFWSPRP, the “shrunken log2 fold change” value is -0.146.
With RRIRKRPPRLPRPRPRPFKVPRP the figure was -0.0542; with RRIRKRPPRLPRPRPRPRSWPRP, 0.833.
As for RRIRVRPPRLPRPRPRPNLTPRP, the “shrunken log2 fold change” value was -0.186.
Regarding RRIRLRPPRLPRPRPRPIVEPRP, the “shrunken log2 fold change” value was found to be 0.0406.
As to RRIRIRPPRLPRPRPRPMRDPRP, the “shrunken log2 fold change” value came out at 0.189.
